{
  "source": "patent US20140227251A1",
  "about": "(published 2014)",
  "binders": {"B1": {"name": "D2E7 combination variant Y32K/SS-R30I (antibody, V domains shown)", "VH": "not shown", "VL": "DIQMTQSPSSLSASVGDRVTITCRASQSIINYLSWYQQKPGKAPKLLIYAASTLQSGVPSRFSGSGSGTDFTLTISSLQPEDVATYYCQRYNRAPYTFGQGTKVEIK"}, "B2": {"name": "D2E7 combination variant Y32K/SS-R30T (antibody, V domains shown)", "VH": "not shown", "VL": "B1 VL with I30T"}},
  "biological_target": "Human TNF-α (R&D Systems) (human, UniProt P01375 77-233, labeled with Alexa Fluor 647 in the FACS assays)",
  "sequence (P01375 77-233)": "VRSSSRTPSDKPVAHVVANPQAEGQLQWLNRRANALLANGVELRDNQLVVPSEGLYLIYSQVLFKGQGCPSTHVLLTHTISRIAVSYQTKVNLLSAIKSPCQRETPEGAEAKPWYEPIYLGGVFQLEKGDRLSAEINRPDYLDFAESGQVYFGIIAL",
  "assay": "Biacore",
  "note": "Substitutions are numbered along the chain they refer to. Numbers in names are those of the source.",
  "data": [
    {"binder": "B1", "values": [
      {"measurement": "Kd", "result": 0.149, "unit": "nM"}
    ]},
    {"binder": "B2", "values": [
      {"measurement": "Kd", "result": 0.13, "unit": "nM"}
    ]}
  ]
}
